Test results published in PMC10343800, “A Novel LSTM-Based Machine Learning Model for Predicting the Activity of Food Protein-Derived Antihypertensive Peptides” (Molecules, 2023).
Read-outs that look alike come from different tables or passages of the source. Ends that are not written are not given here. Peptide text beside a SMILES is read from it.

How the values were obtained:
ACE [1] = biological target: T1, ACE (Homo sapiens, UniProt P12821); settings: in vitro ACE inhibition; read-out: Reported IC50; cited from earlier work
ACE [2] = biological target: T1, ACE; test: biochemical
Method: An online tool (https://www.genscript.com/sms2/random_protein.html accessed on 1 March 2023) was used to randomly generate peptides in order to test the efficiency of the model. The top peptides with a small number of IC50 values were selected for synthesis. […] The peptides used for validation were synthesized by Genescript with a purity > 97%. The ACE inhibitory assay was performed according to a previous study with modifications. ACE, N-hippuryl-His-Leu tetrahydrate (HHL, Sigma-Aldrich, St. Louis, MI, USA) and the peptide samples were dissolved in 100 mM of boric acid containing 300 mM of NaCl (pH8.3). Firstly, 10 μL of the peptide solution was preincubated with 50 μL of 6.5 mM HHL at 37 °C for 5 min. Then, 5 μL of 0.1UN/mL ACE (preincubated at 37 °C) was added to the reaction system and incubated at 37 °C for another 30 min. The reaction was terminated by adding 85 μL of 1 M HCl. The concentration of hippuric acid (Hip, the reaction product) was measured by HPLC with a C18 column (5 µm, 250 mm × 4.6 mm). The sample (20 μL) was eluted by a gradient of solvent A (H2O with 0.05% TFA) and solvent B (acetonitrile with 0.05% TFA) at a flow rate of 1.2 mL/min. The absorbance at 228 nm was monitored. The concentration of HA was calculated based on its standard curve. The area under each peak was calculated, in which A = the area under the peak of the blank group (without the peptide) and B = the area under the peak of the peptide group. The ACE inhibitory ratio = (A − B)/A. The ACE inhibitory ratio of each peptide at different concentrations was measured.

[3] = 6.5 mM HHL, 0.1 UN/mL ACE, 100 mM boric acid with 300 mM NaCl pH 8.3, 37 °C, 5 min preincubation, 30 min incubation, hippuric acid by HPLC C18, 228 nm, read-out: Experimental IC50

T1 sequence (P12821 30-1306, species assumed): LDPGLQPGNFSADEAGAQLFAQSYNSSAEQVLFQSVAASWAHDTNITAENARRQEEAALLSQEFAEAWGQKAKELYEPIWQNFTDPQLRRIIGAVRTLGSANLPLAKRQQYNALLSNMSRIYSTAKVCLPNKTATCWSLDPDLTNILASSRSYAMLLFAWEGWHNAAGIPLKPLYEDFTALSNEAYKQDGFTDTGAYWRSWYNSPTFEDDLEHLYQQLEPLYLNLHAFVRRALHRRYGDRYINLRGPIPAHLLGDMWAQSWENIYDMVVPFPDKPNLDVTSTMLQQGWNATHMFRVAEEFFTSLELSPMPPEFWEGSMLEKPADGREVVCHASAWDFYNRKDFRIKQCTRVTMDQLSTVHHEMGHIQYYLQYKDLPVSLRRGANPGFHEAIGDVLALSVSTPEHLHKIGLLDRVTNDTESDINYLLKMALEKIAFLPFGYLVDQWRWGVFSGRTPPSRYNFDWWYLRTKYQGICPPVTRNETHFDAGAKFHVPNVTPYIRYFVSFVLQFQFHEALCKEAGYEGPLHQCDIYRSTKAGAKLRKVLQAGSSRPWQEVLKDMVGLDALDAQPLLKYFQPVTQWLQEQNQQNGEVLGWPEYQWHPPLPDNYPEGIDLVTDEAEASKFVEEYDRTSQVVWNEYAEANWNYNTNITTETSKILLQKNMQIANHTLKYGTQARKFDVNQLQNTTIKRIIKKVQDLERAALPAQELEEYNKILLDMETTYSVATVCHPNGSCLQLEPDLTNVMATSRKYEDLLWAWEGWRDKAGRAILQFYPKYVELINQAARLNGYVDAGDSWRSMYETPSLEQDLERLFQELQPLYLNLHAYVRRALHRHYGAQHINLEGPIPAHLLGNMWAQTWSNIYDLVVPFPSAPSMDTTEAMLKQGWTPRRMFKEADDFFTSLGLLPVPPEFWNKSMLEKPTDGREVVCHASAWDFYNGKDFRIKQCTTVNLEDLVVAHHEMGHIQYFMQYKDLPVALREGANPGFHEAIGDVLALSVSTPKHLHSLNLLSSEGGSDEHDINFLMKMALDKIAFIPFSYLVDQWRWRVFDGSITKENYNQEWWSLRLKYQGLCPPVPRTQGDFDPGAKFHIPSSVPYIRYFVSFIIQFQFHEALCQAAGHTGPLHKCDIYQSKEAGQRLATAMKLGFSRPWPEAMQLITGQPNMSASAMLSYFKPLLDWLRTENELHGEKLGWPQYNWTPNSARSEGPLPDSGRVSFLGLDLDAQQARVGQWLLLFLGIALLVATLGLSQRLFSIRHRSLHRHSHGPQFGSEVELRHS

| Molecule | IC50 (ACE [1]) | IC50 (ACE [2]) | also measured |
| --- | --- | --- | --- |
| KIDKVVK | 0.62 µM | – | – |
| IQWCA [IQWCA] | – | 0.1 µM | – |
| LKPNS [LKPNS] | – | 0.5 µM | – |
| C[C@H](NC(=O)[C@H](CCCCN)NC(=O)[C@H](CC(=O)O)NC(=O)[C@@H](N)Cc1ccccc1)C(=O)O [FDKA] (H-FDKA-OH) | – | 0.6 µM | – |
| VAWKL [VAWKL] | – | 0.23 µM | – |
| PLPLL [PLPLL] | – | 0.2 µM | – |
| CC(C)[C@H](NC(=O)CN)C(=O)N1CCC[C@H]1C(=O)N[C@@H](CCCCN)C(=O)O [GVPK] (H-GVPK-OH) | – | 0.25 µM | – |
| N[C@@H](Cc1c[nH]c2ccccc12)C(=O)N[C@@H](CC(=O)O)C(=O)O [WD] (H-Trp-Asp-OH) | – | – | IC50 (ACE [2]; [3]): 0.51 µM |
| FALPC [FALPC] | – | 0.16 µM | – |
| LVLPGE | 13.5 µM | – | – |
| TVTNPARIA | 14.5 µM | – | – |
| PDFLI [PDFLI] | – | 0.33 µM | – |
| PGSGCAGTDL | 57.9 µM | – | – |
| EKSYELP | 18 µM | – | – |
| GAAELPCSADWW | 11 µM | – | – |
| CC[C@H](C)[C@H](NC(=O)[C@@H](N)Cc1ccccc1)C(=O)O [FI] (H-Phe-Ile-OH) | – | 0.31 µM | – |
| DKVGINYW | 25.4 µM | – | – |
| LDSPSEGRAPG | 17.9 µM | – | – |
| CC(C)C[C@H](NC(=O)[C@H](CCCCN)NC(=O)[C@@H](N)CC(C)C)C(=O)O [LKL] (H-Leu-Lys-Leu-OH) | – | – | IC50 (ACE [2]; [3]): 0.56 µM |
| HLNVVHGN | 50.9 µM | – | – |
| AFVGYVLP | 14.4 µM | – | – |
| VYHEL [VYHEL] | – | 0.38 µM | – |
| KGYGGVSLPEW | 0.7 µM | – | – |
| LLVTLKK | 0.95 µM | – | – |

| Molecule | IC50 (ACE [1]) | IC50 (ACE [2]) | also measured |
| --- | --- | --- | --- |
| ILSKLK | 4.02 µM | – | – |
| LRLESF | 5.39 µM | – | – |
| LEEFCC | 1.85 µM | – | – |
| VISDEDGVTH | 8.16 µM | – | – |
| KLPAY [KLPAY] | – | 0.12 µM | – |
| VELYP | 5.22 µM | – | – |
| IISKIK | 1.19 µM | – | – |
| PAGELHP | 0.5 µM | – | – |
| CTFSIPAQC | 24.4 µM | – | – |
| DAQSAPLRVY | 12.2 µM | – | – |
| LKPDQ [LKPDQ] | – | 0.88 µM | – |
| TFQGGlPPHGIQVER (TFQGGPPHGIQVER) | 3.4 µM | – | – |
| N=C(N)NCCC[C@H](NC(=O)[C@H](Cc1c[nH]cn1)NC(=O)[C@H](CC(=O)O)NC(=O)[C@@H](N)Cc1c[nH]cn1)C(=O)O [HDHR] (H-HDHR-OH) | – | 0.59 µM | – |
| IPPAYTK | 23.5 µM | – | – |
| CC[C@H](C)[C@H](NC(=O)[C@@H]1CCCN1C(=O)[C@H](CCCCN)NC(=O)[C@@H](N)CC(C)C)C(=O)O [LKPI] (H-LKPI-OH) | – | 0.39 µM | – |
| MLPAY | 1.58 µM | – | – |
| VHLAP [VHLAP] | – | 0.33 µM | – |
| RDGGYCC | 0.84 µM | – | – |
| LVLPGELAK | 184 µM | – | – |
| VDSDVVK | 8.64 µM | – | – |
| C[C@H](NC(=O)[C@@H]1CCCN1C(=O)CN)C(=O)N[C@@H](Cc1ccc(O)cc1)C(=O)O [GPAY] (H-GPAY-OH) | – | 0.37 µM | – |
| CC(C)C[C@H](NC(=O)[C@@H](NC(=O)[C@@H](N)CC(C)C)C(C)C)C(=O)O [LVL] (H-Leu-Val-Leu-OH) | – | 0.32 µM | – |
| CC(C)C[C@H](NC(=O)[C@H](C)N)C(=O)N1CCC[C@H]1C(=O)N[C@@H](CC(=O)O)C(=O)O [ALPD] (H-ALPD-OH) | – | 1.55 µM | – |
| WQVLPNAVPAK | 1010 µM | – | – |
